Measured values reported in the RNAGym collection of RNA variant scans (doi:10.1021/acssynbio.7b00057).

B1: Pistol ribozyme (parent)
chain: GGGUCGUUGUUCCAUAAUCGCGUGGAUAUGGCACGCAAGUUUCUACCGGGCACCGUAAAUGUCCGACUGGAGCCGUUCGGGCGGCUAUAAACAGACCUCAGGCCCGAAGCGUGGCGGCACCUGCCGCCGGUGGUAAAAAAGAUCGGAAGAGCACACGUCU

Variants of: B1
Assay: aptazyme ON/OFF ratio, guanine; higher = stronger switching; co-transcriptional cleavage with and without guanine

Row | Variant | aptazyme ON/OFF ratio
1 | G9U U10G U11G C13U | 1.26
2 | U7G G9C U11A C12A | 1.94
3 | U7A G9A U10C C12A C13A | 1.13
4 | U7G U8G U10A U11G C12U C13G | 1.36
5 | U7A G9U U10G U11G | 1.1
6 | U8G G9A U10G U11G C12A C13A | 1.57
7 | U8C G9U U10A U11G C12A | 1.07
8 | U7C U8A G9A U10G U11A | 1.01
9 | U8G G9A U10C C13U | 1.07
10 | U8A G9C U10C U11A C12A C13G | 1.05
11 | U8A G9A U10G C12G C13U | 1.26
12 | U8C G9A U10A U11A C12U C13A | 1.28
13 | U7G U11C C12G C13G | 1.09
14 | U8G G9A U10C U11G C12U C13A | 1.34
15 | U7C U8G G9A U10C U11G C12G C13U | 1.09
16 | U7A U11C C12G C13G | 1.16
17 | U7C G9C U11A C12G C13A | 1.12
18 | U7G U11C C12G C13A | 1.2
19 | U7G U8G G9U U10G U11G C12G C13A | 1.09
20 | U7G G9C U10C U11A C12G | 1.31
21 | U7C U8C C12U C13A | 1.41

Row | Variant | aptazyme ON/OFF ratio
22 | U7C U8G G9A U10G U11A C12U C13U | 1.32
23 | U7A U8A G9U U10G U11C C12U C13A | 1.09
24 | U7G U8A G9U U10C U11A C12G C13U | 1.09
25 | U8C G9A U10G U11G C12A C13G | 1.14
26 | U8C G9A U10A C12G C13G | 1.18
27 | U7C U8G G9U U10C U11A C13U | 1.35
28 | U7G U8C G9A U10A C12A C13U | 1.2
29 | U8A G9U U10A C12A C13A | 1.22
30 | U7A U8A G9C U11C C12A C13G | 1.07
31 | U7A U8A G9A U10C U11A | 1.22
32 | U7C U8G G9U U10A C12A | 1.33
33 | U7A U8G G9U U10C U11A C12U | 1.72
34 | U7G U8G G9A U10G U11C C12G C13A | 1.16
35 | U7G G9U U10G U11G C12G | 1.16
36 | G9U U10G C12A C13G | 1.17
37 | U7C U8G G9U U10G C12A C13U | 1.15
38 | U8C G9C U10C C12U C13G | 1.07
39 | U7C U8C G9U U10G U11C C12A | 1.17
40 | U7C U8G G9C U11G C13A | 1.18
41 | U7G U8G G9U U11C C12U C13A | 1.35
42 | U7C U8C U11A C12U C13A | 1.16

Row | Variant | aptazyme ON/OFF ratio
43 | U7A U8G G9A U10A U11C C12G | 1.37
44 | U7C G9A U11G C12U C13A | 1.35
45 | U7A U8G G9C U10A C12A C13G | 1.26
46 | U7A U8C U10C U11C C12U C13G | 1.23
47 | U8C U11G C12G C13U | 1.11
48 | U8G U10C C12G C13G | 1.14
49 | U7G U8C G9A U10G U11C C13G | 1.07
50 | G9U U10A U11A C12G | 1.47
51 | U7A U8G U10C U11C C12G C13A | 1.07
52 | U8C U10G C12A C13U | 1.11
53 | U8G G9C U10A U11G C12A C13U | 1.16
54 | U7A U11G C12A | 1.16
55 | U7C G9U U10C U11G C12U C13U | 1.16
56 | U7A U8C G9A U10A U11C C12A C13A | 1.14
57 | U7G G9C U10G U11C C12A | 1.69
58 | U8C G9A U10A C12A | 1.22
59 | U7A U8C G9A U11A C12U C13G | 1.13
60 | U8A G9A U11C C12U C13U | 1.21
61 | U7A G9A U11G C12U | 2.19
62 | U7G U8G G9U U10C U11G C12A C13G | 1.15
63 | U7A U8G G9C U11C C13A | 1.37

Row | Variant | aptazyme ON/OFF ratio
64 | U8A U10A U11C C13A | 1.03
65 | G9U U10C C12G C13G | 1.32
66 | U7G U8G G9U U10C U11G | 1.28
67 | U7A U10C U11C C13G | 1.07
68 | U7G U8G G9A U11G C12G C13U | 1.23
69 | U8G G9U U11G C12A C13U | 1.21
70 | U7C U8C G9U U11G C12U | 1.19
71 | U7G U8A G9U U10C U11A C12A C13G | 1.06
72 | U7G U8G G9A U10A C12U | 1.52
73 | U7G U8G G9U U10G U11C C12A C13U | 1.1
74 | U7A U8C U10G U11A C12G C13A | 1.18
75 | U7A U8C U10A U11G C13A | 1.26
76 | U7C U8C G9A U11G C12A | 1.37
77 | U7C U8A U10C U11A C12A C13G | 1.17
78 | U8A G9A U10G U11C C13G | 1.05
79 | U7A U8A U10G U11C C12A | 1.61
80 | U7G U8C U10C U11A C12U C13A | 1.12
81 | U7A U8G G9A U11G C13U | 1.4
82 | U7C U8G G9C U11G C12A C13G | 1.18
83 | U8C G9U U10A C12A C13A | 1.17
